# Assay results as given in patent US20100184697A1 (U S OF AMERICA AS REPRESENTED BY THE SECRETAR, published 2010).
# Square brackets hold non-standard residues; d marks the D form. Ends that are not written are not given here. Nle = CCCC[C@H](N)C(=O)O; Dab = NCC[C@H](N)C(=O)O
# Target: STAT3 (human, UniProt P40763 2-770, limits assumed)
# Test: cell-based or functional assay
# STAT3, sequence (P40763 2-770 limits assumed): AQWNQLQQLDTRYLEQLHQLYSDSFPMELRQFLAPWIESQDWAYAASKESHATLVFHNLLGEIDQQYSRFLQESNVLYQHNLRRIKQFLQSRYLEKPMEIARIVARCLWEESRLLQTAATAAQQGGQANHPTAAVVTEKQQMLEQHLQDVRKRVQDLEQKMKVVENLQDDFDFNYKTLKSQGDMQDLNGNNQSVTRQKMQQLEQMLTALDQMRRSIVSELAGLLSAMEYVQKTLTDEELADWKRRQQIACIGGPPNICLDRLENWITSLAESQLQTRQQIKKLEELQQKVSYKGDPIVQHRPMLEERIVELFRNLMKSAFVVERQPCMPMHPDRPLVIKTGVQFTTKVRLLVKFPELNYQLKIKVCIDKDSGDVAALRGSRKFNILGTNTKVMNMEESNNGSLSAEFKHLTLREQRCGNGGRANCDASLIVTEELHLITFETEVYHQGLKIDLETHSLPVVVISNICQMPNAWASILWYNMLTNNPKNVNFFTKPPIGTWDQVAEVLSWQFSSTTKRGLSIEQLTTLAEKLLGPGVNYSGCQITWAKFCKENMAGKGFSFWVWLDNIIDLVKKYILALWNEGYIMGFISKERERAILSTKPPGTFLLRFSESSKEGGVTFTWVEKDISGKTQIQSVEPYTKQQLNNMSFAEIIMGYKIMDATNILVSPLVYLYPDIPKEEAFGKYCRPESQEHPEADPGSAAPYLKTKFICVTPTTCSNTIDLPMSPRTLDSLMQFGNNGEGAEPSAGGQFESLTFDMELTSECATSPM
row,Binder,"Activity, % of control (luciferase reporter, GAS or STAT3 element, MCF-7 cells)"
1,LDTRYLEQLHQLYSRQIKIWFPNRR[Nle]KWKK-NH2 (N-terminus assumed; SMILES CCCC[C@H](NC(=O)[C@H](CCCNC(=N)N)NC(=O)[C@H](CCCNC(=N)N)NC(=O)[C@H](CC(N)=O)NC(=O)[C@@H]1CCCN1C(=O)[C@H](Cc1ccccc1)NC(=O)[C@H](Cc1c[nH]c2ccccc12)NC(=O)[C@@H](NC(=O)[C@H](CCCCN)NC(=O)[C@@H](NC(=O)[C@H](CCC(N)=O)NC(=O)[C@H](CCCNC(=N)N)NC(=O)[C@H](CO)NC(=O)[C@H](Cc1ccc(O)cc1)NC(=O)[C@H](CC(C)C)NC(=O)[C@H](CCC(N)=O)NC(=O)[C@H](Cc1c[nH]cn1)NC(=O)[C@H](CC(C)C)NC(=O)[C@H](CCC(N)=O)NC(=O)[C@H](CCC(=O)O)NC(=O)[C@H](CC(C)C)NC(=O)[C@H](Cc1ccc(O)cc1)NC(=O)[C@H](CCCNC(=N)N)NC(=O)[C@@H](NC(=O)[C@H](CC(=O)O)NC(=O)[C@@H](N)CC(C)C)[C@@H](C)O)[C@@H](C)CC)[C@@H](C)CC)C(=O)N[C@@H](CCCCN)C(=O)N[C@@H](Cc1c[nH]c2ccccc12)C(=O)N[C@@H](CCCCN)C(=O)N[C@@H](CCCCN)C(N)=O) [Hel2-Pen],56 % of control
2,DTRYLEQLHKLYSRQIKIWFPNRR[Nle]KWKK-NH2 (N-terminus assumed; SMILES CCCC[C@H](NC(=O)[C@H](CCCNC(=N)N)NC(=O)[C@H](CCCNC(=N)N)NC(=O)[C@H](CC(N)=O)NC(=O)[C@@H]1CCCN1C(=O)[C@H](Cc1ccccc1)NC(=O)[C@H](Cc1c[nH]c2ccccc12)NC(=O)[C@@H](NC(=O)[C@H](CCCCN)NC(=O)[C@@H](NC(=O)[C@H](CCC(N)=O)NC(=O)[C@H](CCCNC(=N)N)NC(=O)[C@H](CO)NC(=O)[C@H](Cc1ccc(O)cc1)NC(=O)[C@H](CC(C)C)NC(=O)[C@H](CCCCN)NC(=O)[C@H](Cc1c[nH]cn1)NC(=O)[C@H](CC(C)C)NC(=O)[C@H](CCC(N)=O)NC(=O)[C@H](CCC(=O)O)NC(=O)[C@H](CC(C)C)NC(=O)[C@H](Cc1ccc(O)cc1)NC(=O)[C@H](CCCNC(=N)N)NC(=O)[C@@H](NC(=O)[C@@H](N)CC(=O)O)[C@@H](C)O)[C@@H](C)CC)[C@@H](C)CC)C(=O)N[C@@H](CCCCN)C(=O)N[C@@H](Cc1c[nH]c2ccccc12)C(=O)N[C@@H](CCCCN)C(=O)N[C@@H](CCCCN)C(N)=O) [Hel2A-Pen],100 % of control
3,LDTRYLEQLHKLYSRQIKIWFPNRR[Nle]KWKK-NH2 (N-terminus assumed; SMILES CCCC[C@H](NC(=O)[C@H](CCCNC(=N)N)NC(=O)[C@H](CCCNC(=N)N)NC(=O)[C@H](CC(N)=O)NC(=O)[C@@H]1CCCN1C(=O)[C@H](Cc1ccccc1)NC(=O)[C@H](Cc1c[nH]c2ccccc12)NC(=O)[C@@H](NC(=O)[C@H](CCCCN)NC(=O)[C@@H](NC(=O)[C@H](CCC(N)=O)NC(=O)[C@H](CCCNC(=N)N)NC(=O)[C@H](CO)NC(=O)[C@H](Cc1ccc(O)cc1)NC(=O)[C@H](CC(C)C)NC(=O)[C@H](CCCCN)NC(=O)[C@H](Cc1c[nH]cn1)NC(=O)[C@H](CC(C)C)NC(=O)[C@H](CCC(N)=O)NC(=O)[C@H](CCC(=O)O)NC(=O)[C@H](CC(C)C)NC(=O)[C@H](Cc1ccc(O)cc1)NC(=O)[C@H](CCCNC(=N)N)NC(=O)[C@@H](NC(=O)[C@H](CC(=O)O)NC(=O)[C@@H](N)CC(C)C)[C@@H](C)O)[C@@H](C)CC)[C@@H](C)CC)C(=O)N[C@@H](CCCCN)C(=O)N[C@@H](Cc1c[nH]c2ccccc12)C(=O)N[C@@H](CCCCN)C(=O)N[C@@H](CCCCN)C(N)=O) [Hel2B-Pen],100 % of control
4,LDTRYLEQLHKLYRQIKIWFPNRR[Nle]KWKK-NH2 (N-terminus assumed; SMILES CCCC[C@H](NC(=O)[C@H](CCCNC(=N)N)NC(=O)[C@H](CCCNC(=N)N)NC(=O)[C@H](CC(N)=O)NC(=O)[C@@H]1CCCN1C(=O)[C@H](Cc1ccccc1)NC(=O)[C@H](Cc1c[nH]c2ccccc12)NC(=O)[C@@H](NC(=O)[C@H](CCCCN)NC(=O)[C@@H](NC(=O)[C@H](CCC(N)=O)NC(=O)[C@H](CCCNC(=N)N)NC(=O)[C@H](Cc1ccc(O)cc1)NC(=O)[C@H](CC(C)C)NC(=O)[C@H](CCCCN)NC(=O)[C@H](Cc1c[nH]cn1)NC(=O)[C@H](CC(C)C)NC(=O)[C@H](CCC(N)=O)NC(=O)[C@H](CCC(=O)O)NC(=O)[C@H](CC(C)C)NC(=O)[C@H](Cc1ccc(O)cc1)NC(=O)[C@H](CCCNC(=N)N)NC(=O)[C@@H](NC(=O)[C@H](CC(=O)O)NC(=O)[C@@H](N)CC(C)C)[C@@H](C)O)[C@@H](C)CC)[C@@H](C)CC)C(=O)N[C@@H](CCCCN)C(=O)N[C@@H](Cc1c[nH]c2ccccc12)C(=O)N[C@@H](CCCCN)C(=O)N[C@@H](CCCCN)C(N)=O) [Hel2A-2-Pen],71 % of control
5,LDTRYLEQLH[Dab]LYRQIKIWFPNRR[Nle]KWKK-NH2 (N-terminus assumed; SMILES CCCC[C@H](NC(=O)[C@H](CCCNC(=N)N)NC(=O)[C@H](CCCNC(=N)N)NC(=O)[C@H](CC(N)=O)NC(=O)[C@@H]1CCCN1C(=O)[C@H](Cc1ccccc1)NC(=O)[C@H](Cc1c[nH]c2ccccc12)NC(=O)[C@@H](NC(=O)[C@H](CCCCN)NC(=O)[C@@H](NC(=O)[C@H](CCC(N)=O)NC(=O)[C@H](CCCNC(=N)N)NC(=O)[C@H](Cc1ccc(O)cc1)NC(=O)[C@H](CC(C)C)NC(=O)[C@H](CCN)NC(=O)[C@H](Cc1c[nH]cn1)NC(=O)[C@H](CC(C)C)NC(=O)[C@H](CCC(N)=O)NC(=O)[C@H](CCC(=O)O)NC(=O)[C@H](CC(C)C)NC(=O)[C@H](Cc1ccc(O)cc1)NC(=O)[C@H](CCCNC(=N)N)NC(=O)[C@@H](NC(=O)[C@H](CC(=O)O)NC(=O)[C@@H](N)CC(C)C)[C@@H](C)O)[C@@H](C)CC)[C@@H](C)CC)C(=O)N[C@@H](CCCCN)C(=O)N[C@@H](Cc1c[nH]c2ccccc12)C(=O)N[C@@H](CCCCN)C(=O)N[C@@H](CCCCN)C(N)=O) [Hel2H-Pen],43 % of control
6,DTRYLEQLH[Dab]LYRQIKIWFPNRR[Nle]KWKK-NH2 (N-terminus assumed; SMILES CCCC[C@H](NC(=O)[C@H](CCCNC(=N)N)NC(=O)[C@H](CCCNC(=N)N)NC(=O)[C@H](CC(N)=O)NC(=O)[C@@H]1CCCN1C(=O)[C@H](Cc1ccccc1)NC(=O)[C@H](Cc1c[nH]c2ccccc12)NC(=O)[C@@H](NC(=O)[C@H](CCCCN)NC(=O)[C@@H](NC(=O)[C@H](CCC(N)=O)NC(=O)[C@H](CCCNC(=N)N)NC(=O)[C@H](Cc1ccc(O)cc1)NC(=O)[C@H](CC(C)C)NC(=O)[C@H](CCN)NC(=O)[C@H](Cc1c[nH]cn1)NC(=O)[C@H](CC(C)C)NC(=O)[C@H](CCC(N)=O)NC(=O)[C@H](CCC(=O)O)NC(=O)[C@H](CC(C)C)NC(=O)[C@H](Cc1ccc(O)cc1)NC(=O)[C@H](CCCNC(=N)N)NC(=O)[C@@H](NC(=O)[C@@H](N)CC(=O)O)[C@@H](C)O)[C@@H](C)CC)[C@@H](C)CC)C(=O)N[C@@H](CCCCN)C(=O)N[C@@H](Cc1c[nH]c2ccccc12)C(=O)N[C@@H](CCCCN)C(=O)N[C@@H](CCCCN)C(N)=O) [Hel2I-Pen],53 % of control
7,Ac-DTRYLEQLHALYRQIKIWFPNRR[Nle]KWKK-NH2 (SMILES CCCC[C@H](NC(=O)[C@H](CCCNC(=N)N)NC(=O)[C@H](CCCNC(=N)N)NC(=O)[C@H](CC(N)=O)NC(=O)[C@@H]1CCCN1C(=O)[C@H](Cc1ccccc1)NC(=O)[C@H](Cc1c[nH]c2ccccc12)NC(=O)[C@@H](NC(=O)[C@H](CCCCN)NC(=O)[C@@H](NC(=O)[C@H](CCC(N)=O)NC(=O)[C@H](CCCNC(=N)N)NC(=O)[C@H](Cc1ccc(O)cc1)NC(=O)[C@H](CC(C)C)NC(=O)[C@H](C)NC(=O)[C@H](Cc1c[nH]cn1)NC(=O)[C@H](CC(C)C)NC(=O)[C@H](CCC(N)=O)NC(=O)[C@H](CCC(=O)O)NC(=O)[C@H](CC(C)C)NC(=O)[C@H](Cc1ccc(O)cc1)NC(=O)[C@H](CCCNC(=N)N)NC(=O)[C@@H](NC(=O)[C@H](CC(=O)O)NC(C)=O)[C@@H](C)O)[C@@H](C)CC)[C@@H](C)CC)C(=O)N[C@@H](CCCCN)C(=O)N[C@@H](Cc1c[nH]c2ccccc12)C(=O)N[C@@H](CCCCN)C(=O)N[C@@H](CCCCN)C(N)=O) [Hel2A-3-Pen],89 % of control
